The values that follow come from patent US20250237641A1 (priority 2021, published 2025).

One series relates to COVID-19 patients. As to conditions: cited from earlier work.
Another series relates to kidney organoids. As to conditions: short term, at the efficacious dose (2 μM).
The test system of a further series is SARS-CoV-2. The series is described as follows: Plaque assay of supernatants from SARS-CoV-2 infected kidney organoids treated with remdesivir. Format: cell-based. The note with it: 2 μM remdesivir immediately after infection with SARS-CoV-2 or SARS-CoV-2-mNG; vs untreated organoids. On the procedure: Mean±SEM of three independent experiments. Paired t-test, **p<0.01.
To investigate the efficacy of remdesivir, kidney organoids were infected with SARS-CoV-2 or SARS-CoV-2-mNG, and then treated with a 2 μM dose of remdesivir immediately after infection (FIG. 5A).

Series [1] relates to kidney organoid podocytes. The series is described as follows: Time-lapse imaging of GFP-PODXL kidney organoids under prolonged treatment (podocyte integrity, organoid size). Format: cell-based, human. On the procedure:
It was determined whether podocytes are damaged by prolonged IFN-γ treatment. As shown at FIG. 24A, an example time course for prolonged IFN-γ treatment involves regular imaging of organoids during treatment of mature organoids with IFN-γ prior to fixation. […] Further, podocyte junctional tracks appear intact with 7d IFN-γ treatment (results from confocal immunofluorescence microscopy of control versus 7d IFN-γ treatment; markers: ZO-1, Synaptopodin, ZO-1+Synaptopodin, APOL1, and DAPI). Based on these observations, it was concluded that podocytes appear largely undamaged by prolonged IFN-γ treatment.

A further series concerns APOL1 expression. The series is described as follows: APOL1 expression in kidney organoids on agonist (IFN-γ) treatment, immunofluorescence. It counts as cell-based, human. On the procedure: Experiments were performed to determine APOL1 localization in normal human kidney and stimulation in kidney organoids.
In series [2] the test system is kidney organoid endothelial networks. Briefly: Endothelial networks and tubular structures of kidney organoids under prolonged IFN-γ treatment. As to conditions: prolonged (7d) treatment. Format: cell-based, human. The text has this:
As such, it was next determined whether JAK ½ inhibition prevents IFN-γ-induced loss of endothelial networks and disorganization of tubular structures. […] As a result, it was concluded that JAK ½ inhibition prevents IFN-γ-induced loss of endothelial networks and disorganization of tubular structures.

[3] abbreviates: prolonged treatment of mature organoids.

As to `CCC(CC)COC(=O)[C@H](C)N[P@](=O)(OC[C@H]1O[C@@](C#N)(c2ccc3c(N)ncnn23)[C@H](O)[C@@H]1O)Oc1ccccc1` [remdesivir], the tolerability entry with COVID-19 patients (AKI and CKD patients) is “tolerated well”. Also, in the series with COVID-19 patients (remdesivir-treated patients), the “risk of developing AKI” value is “increase chances of developing AKI”. For the same molecule, in the series on kidney organoids, the “safety in kidney cells” value is listed as “supports short term safety”. In the series with SARS-CoV-2, the “reduced replicated virus in supernatants (plaque assay)” value is on record as 71.4%±18%.

In the case of tunicamycin [reference compound], the organoid size result in series [1] (setting [3]) was “shrink in size”.

B1: IFN-γ: cytokine interferon gamma, used to induce APOL1 expression (protein, UniProt P01579 24-161, looked up)
Interferon gamma: QDPYVKEAENLKKYFNAGHSDVADNGTLFLGILKNWKEESDRKIMQSQIVSFYFKLFKNFKDDQSIQKSVETIKEDMNVKFFNSNKKKRDDFEKLTNYSVTDLNVQRKAIHELIQVMAELSPAAKTGKRKRSQMLFRG
Turning to B1, in series [1] (7d treatment, ZO-1, Synaptopodin staining), the podocyte junctional tracks result was “appear intact”. In series [1] (setting [3]), the “loss of GFP-PODXL” value is on record as “does not result in enhanced loss of GFP-PODXL” and the organoid size entry was “no significant change”. For the same molecule, the “APOL1 agonist screen result” value with APOL1 expression (24-hour screen) is given as “strong agonist for APOL1 expression”. Further, the “saturating dose for APOL1 expression” value in the series with APOL1 expression (24 hr, fluorescent intensity of APOL1 in organoids) stood at 100 ng/mL. The “APOL1 expression on titration” value with APOL1 expression (IFN-γ titration) is “dose-responsive activation of APOL1 expression”. Besides, the “effect on endothelial networks and tubular structures” value in series [2] was “pronounced loss of endothelial networks and tubular structures”.
